Results as given in patent US20210253711A1.
Values belong to the binder of their own block, whether it stands above or below them.

Biological target: MICA antigen of Table 2 (purified 6×His-MICA*08 or 6×His-MICA*04) (UniProt Q29983)
Experiment: BLI (Octet Red96), mAb captured on anti-mouse IgG Fc biosensors, His-tagged MICA in solution, 1:1 model

Kd: 1.18 nM
koff: 0.000421 s⁻¹
kon: 383000 M⁻¹ s⁻¹
B1: 3F9.E4 (antibody, V domains shown)
VH: EVQLQESGEGLVKPGGSLKLSCAASGFTFSNYAMSWVRQTPEKRLEWVAYISPGGDYIYYADTVKGRFTISRDNARNTLYLQMSSLKSEDTAMYYCTTDRRHYGSYAMDYWGQGISVTVSS
VL: DIVMTQAAPSVPVTPGESVSISCRSSKSLLHSNGNTYLYWFLQRPGQSPQLLIYRMSNLASGVPDRFSGSGSGTAFTLRISRVEAEDVGVYYCMQHLEYPFTFGSGTKLEIK

Kd: 6.45 nM
koff: 0.000548 s⁻¹
kon: 93300 M⁻¹ s⁻¹
B2: 16F10.C12 (antibody, V domains shown)
VH: EVQLQESGPGLVAPSQSLSITCTVSGFSLTAFGVNWVRQPPGKGLEWLGMIWGDGNTDYNSTLRSRLSISKDNSKSQVFLKLNSLQTDDTARYFCARETYYGNYAGLGYWGQGTLVTVSA
VL: QIVLTQSPAIMSASIGERVTMTCTASSSVSSNYLHWYQQKPRSSPKLWIYTTSNLASGVPTRFSGSGSGTSYSLTISSMEAEDAATYYCHQFHRSPFTFGSGTKLEIK
